Laboratory results taken from patent US20230023093A1 (University of Pennsylvania, published 2023).

B1: HIV-1 Env Fab (VRC01 based Fab generated from pHIV-1 Env Fab) (Fab, V domains shown)
VH: QVQLVQSGGQMKKPGESMRISCRASGYEFIDCTLNWIRLAPGKRPEWMGWLKPRGGAVNYARPLQGRVTMTRDVYSDTAFLELRSLTVDDTAVYFCTRGKNCDYNWDFEHWGRGTPVIVSS
VL: QIVLTQSPGTLSLSPGETAIISCRTSQYGSLAWYQQRPGQAPRLVIYSGSTRAAGIPDRFSGSRWGPDYNLTISNLESGDFGVYYCQQYEFFGQGTKVQVDI
B2: CHIKV-Env-Fab (Fab, V domains shown)
VH: QVQLVQSGSELKKPGASVKVSCKASGYTLTRYAMTWVRQAPGQGLEWMGWINTYTGNPTYVQGFTGRFVFSLDTSVSTAFLHITSLKAEDTAVYFCAREGGARGFDYWGQGTLVTVSS
VL: QSVLTQPPSVSGAPGQRVTISCTGSSSNIGASHDVHWYQQLPGTAPTLLIYVNSNRPSGVPDRFSGSKSGTSASLAITGLQAEDEADYYCQSYDSNLSGSAVFGGGTKLTVLG

Tests used:
[1] = biological target: HIV-1 Env of SF162S (clade B, Tier 1) on pseudotyped virus (HIV-1 clade B, SF162S); experiment: cell-based or functional assay
[2] = biological target: HIV-1 Env of Bal26 (clade B, Tier 1) on pseudotyped virus (HIV-1 clade B, Bal26); experiment: cell-based or functional assay
[3] = biological target: HIV-1 Env of the primary isolate Q23Env17 (pOpt-Env-A) (HIV-1 clade A, Q23Env17); experiment: cell-based or functional assay
[4] = biological target: T1, HIV-1 Env of clade B strain SF162 on transfected 293T cells (HIV-1 clade B, SF162, UniProt P19550 32-847); experiment: binding of day 6 mouse sera to Env expressed in transfected 293T cells (FIG. 12)
T1 construct: whole, on cells

[5] = biological target: recombinant HIV-1 Env (subtype B; MN) protein (HIV-1 subtype B, MN, UniProt P05877 32-513); experiment: binding ELISA, serial dilutions of day 14 mouse sera

| Binder | plateau percent neutralization (TZM-Bl luciferase assay, sera 1:50) [1] | plateau percent neutralization (TZM-Bl luciferase assay, sera 1:50) [2] | plateau percent neutralization (TZM-Bl luciferase assay, sera 1:50) [3] | binding result [4] | binding result [5] |
| --- | --- | --- | --- | --- | --- |
| B1 | ~70% | ~62% | ~60% | binds | – |
| B2 | – | – | – | – | no binding |
